# Where “and” joins values, the source holds several entries; their conditions need not be identical. Equal values may be shown once.
# Legend:
# [1] = biological target: SM2-ΔC24 (deletion of 24 amino acids from C-terminus of SM2) (Synechococcus sp. phage S-ShM2); assay: SEC-MALS; Superose-6 10/300 GL, room temperature (25 °C), 1 mg/ml (100 μl) injected, flow 0.2 ml/min; protein kept in 20 mM Tris, 200 mM NaCl, pH 8.0; self-association
# [2] = biological target: SM2-ΔN14 (deletion of 14 amino acids from N-terminus of SM2) (Synechococcus sp. phage S-ShM2); assay: as above
# [3] = biological target: SM2-ΔN14 (deletion of 14 amino acids from N-terminus of SM2) (Synechococcus sp. phage S-ShM2); assay: crystal structure; SM2-ΔN14 at 12 mg/ml, 0.2 M lithium sulphate monohydrate, 0.1 M Tris pH 8.5, 25% PEG 3350; space group I4, 7 Å, 3 dimers in the asymmetric unit; molecular replacement with the AgsA dimer (PDB 4ZJA)
# [4] = biological target: SM2-ΔN40ΔC24 (deletion of 40 amino acids from N-terminus and 24 amino acids from C-terminus of SM2) (Synechococcus sp. phage S-ShM2); assay: SEC-MALS; Superose-6 10/300 GL, room temperature (25 °C), 1 mg/ml (100 μl) injected, flow 0.2 ml/min; protein kept in 20 mM Tris, 200 mM NaCl, pH 8.0; self-association
# [5] = biological target: full length SM2 Tagged (SM2-FL), small heat shock protein HspSP-ShM2 of Synechococcus sp. phage S-ShM2 (Synechococcus sp. phage S-ShM2); assay: as above
# [6] = biological target: full length SM2 Tagged (SM2-FL), small heat shock protein HspSP-ShM2 of Synechococcus sp. phage S-ShM2 (Synechococcus sp. phage S-ShM2); assay: cryo-EM structure; SM2-FL at 3 mg/ml on Quantifoil R2/1 grids, Talos Arctica 200 kV; one sample sorted into a large dataset (about 90%, 8 Å) and a small dataset (about 10%, 7.7 Å); the dimer of the crystal structure fitted to the maps
substance,measurement,setting,value
SM2-ΔC24 (deletion of 24 amino acids from C-terminus of SM2) (domain or fragment),stoichiometry N,[1],2
SM2-ΔN14 (deletion of 14 amino acids from N-terminus of SM2) (domain or fragment),stoichiometry N,[2],24
same,stoichiometry N,[3],24
SM2-ΔN40ΔC24 (deletion of 40 amino acids from N-terminus and 24 amino acids from C-terminus of SM2) (domain or fragment),stoichiometry N,[4],2
"full length SM2 Tagged (SM2-FL), small heat shock protein HspSP-ShM2 of Synechococcus sp. phage S-ShM2 (natural protein)",stoichiometry N,[5],> 40
same,stoichiometry N,[6],60 and 48

# Reference: article PMC8546028
